Reference: the supplement of paper PMC12764529
± gives the half width of the 95% confidence interval.

What was measured:
[1] = folding stability dG unfold from chymotrypsin proteolysis; higher = more stable
Procedure, shortened: (§1)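 Only designs with AlphaFold2 dimer inter-PAE above 15 were retained; each was a mini-protein under 80 residues with no cysteine, in a PA-tagged cDNA display construct. After digestion with trypsin and chymotrypsin and sequencing, K50 was inferred by Bayesian fitting of counts, and unfolding free energy was derived per protease or combined against a sequence-predicted unfolded-state K50 and a shared folded-state K50.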

[2] = folding stability dG unfold (combined trypsin and chymotrypsin); higher = more stable
Procedure, shortened: as §1

[3] = folding stability dG unfold from trypsin proteolysis; higher = more stable
Procedure, shortened: as §1

Row | Sequence | folding stability dG unfold [1] | folding stability dG unfold [2] | folding stability dG unfold [3]
1 | SASPDETVILEKVLPPSASPEEVEKEREEIREKLESLGAKVEVTIEPDPETGTIPIKITITKEQYEKLKSAG [r14_602_JUSTAS] | 0.0517 ± 0.056 kcal/mol | 0.034 ± 0.15 kcal/mol | -0.459 ± 0.064 kcal/mol
2 | SAGGSAGGIHPDVKVKLVKIVSVEEGEGEVVAKALVELPNGERVVVSSEVLKELLEENPDVDVSSAGGSAGG [r6_77_TrMRF] | 1.02 ± 0.067 kcal/mol | 0.819 ± 0.18 kcal/mol | 0.301 ± 0.056 kcal/mol
3 | SAGGSAGGSAGSVLILVSREDLEALLEAGAEIVEVSDDYVLIRVEVPEVEVLDENGKRLDSAGGSAGGSAGG [r11_828_TrROS_Hall] | 2.43 ± 0.056 kcal/mol | 2.21 ± 0.077 kcal/mol | 1.9 ± 0.042 kcal/mol
4 | SAGGSAGGSMTIVIPKKTLEKMKPETIKKLLELAKELNTTITMNENAITIPVGKGTEEALKALSAGGSAGGS [r12_945_TrMRF] | 1.05 ± 0.025 kcal/mol | 1.28 ± 0.073 kcal/mol | 1.5 ± 0.07 kcal/mol
5 | SAMANITANYYDPETGKVLAKDLPLPNGDEVHVTPNPVTGTVTVEWDGPEEALEVIKAALPPDWKIYPLSAG [r14_252_TrMRF] | -0.0765 ± 0.16 kcal/mol | 0.362 ± 0.18 kcal/mol | 0.712 ± 0.035 kcal/mol
6 | MDDVVRVVLPVRVRIRDPVAPDRPEREVEILLERDVPLDEESLEELLEEAERAAEELARALGGEEAEVEPVS [r1_300_TrMRF] | 1.54 ± 0.024 kcal/mol | 1.15 ± 0.089 kcal/mol | 0.135 ± 0.09 kcal/mol
7 | SADLAAELEEGGFVVTITETVVSVTPQTLEKDSFVVEKDVVTTITVTPPPVAPPPPDPANLRDAAGAPVSAG [r14_569_JUSTAS] | 1.01 ± 0.023 kcal/mol | 0.798 ± 0.084 kcal/mol | -0.0411 ± 0.041 kcal/mol
8 | SALEIEIEQDEDGNMRISVYLPGWKPIEEQPVPPGDGMKTFIIKLPDRVLMITFTNGGIEPNPVPLNDISAG [r14_403_TrROS] | 2.69 ± 0.092 kcal/mol | 2.51 ± 0.23 kcal/mol | 2.44 ± 0.17 kcal/mol
9 | SAGGSVTLSAEFTLPDGSRVRLTVEVLPDGTLRVSAEVEAVPLVPPVRVSRLPDGSLVSDPLGVPLVLSAGG [r13_151_TrMRF] | 1.31 ± 0.11 kcal/mol | 1.57 ± 0.15 kcal/mol | 1.82 ± 0.046 kcal/mol
10 | SAGGEKTYMVRIDIEYRTPGKPREIDLMVPIKSPEQAREQLDKIADFLAKEHPDNWRIKVEIYPMEDSAGGS [r16_475_TrROS] | 2.49 ± 0.068 kcal/mol | 2.16 ± 0.29 kcal/mol | 1.28 ± 0.18 kcal/mol
11 | SAGGMIKITVTLPDPARVRALFAELGLDVEVTPLPDGSVEIYLPEEYKEKVVEALPEEEVEITPVPPLSAGG [r13_261_JUSTAS] | 3.05 ± 0.17 kcal/mol | 2.91 ± 0.14 kcal/mol | 2.5 ± 0.13 kcal/mol
12 | SRRLITIEITVTLPGNPEVTLSKTLKLPTEDVEEAIEKAKKEFKEEFGIPEDVPVKIEVTVSTSDGDPSLQS [r1_149_JUSTAS] | 1.56 ± 0.049 kcal/mol | 1.96 ± 0.068 kcal/mol | 2.53 ± 0.18 kcal/mol
13 | SAGGSAGGMVKLKVYKIPESVPPELRALLEALVEGEGEVEVEPEEAEALLKLPGIEELEVEELESAGGSAGG [r6_381_TrMRF] | 1.84 ± 0.059 kcal/mol | 1.59 ± 0.077 kcal/mol | 0.912 ± 0.021 kcal/mol
14 | SAGGSAGGSTIDITLPDLDEEEIREYLKELFPDVEVTIEYDPSTNTYTLKVGGDEVVVTRLPPNSAGGSAGG [r6_609_JUSTAS] | 3.43 ± 0.038 kcal/mol | 3.43 ± 0.057 kcal/mol | 3.25 ± 0.086 kcal/mol
15 | SAGGSLVEKVKAIFAEKGIPVNPITTTPTSFTAKTPTGPFTVELPGNSTVTVSPDGTATVTVPPGLSSAGGS [r8_297_JUSTAS] | 2.2 ± 0.066 kcal/mol | 1.99 ± 0.21 kcal/mol | 1.41 ± 0.16 kcal/mol
16 | SAGGSAGGPVKIHVHVNPEEGYYMIEVRSGNEPRHIMIPMDKEEIKSFIENLPPGIEVEIHPMPSAGGSAGG [r6_401_TrROS] | 1.19 ± 0.072 kcal/mol | 1.4 ± 0.14 kcal/mol | 1.37 ± 0.067 kcal/mol
17 | SAGGSAGGSAGGGYIEIDSVHLHPDGTVTRTRAVLEVDENGNVRVLSAETETVPLDDILGSAGGSAGGSAGG [r7_521_TrMRF] | 2.32 ± 0.043 kcal/mol | 2.38 ± 0.12 kcal/mol | 2.28 ± 0.14 kcal/mol
